From patent publication US20180147231A1, “METHOD FOR TREATMENT AND PROGNOSIS OF COLORECTAL CANCER” (Oxford University Innovation Limited, priority 2015, published 2018)

Tests used:
[1] = system: T84 cells (KRAS-mutant, IL22RA1 high); assay: Chemotherapy killing assay (MTT), T84 cells; format: cell-based, human; conditions: 48 h pre-treatment with 10 ng/mL IL-22, then 50 μM oxaliplatin or 5-FU for 48 h
Protocol: (A) MTT assay on Colo205, T84, and SW480 cells pre-treated or not pre-treated for 48 h with 10 ng/mL IL-22, then treated with 50 μM oxaliplatin or 5-FU for 48 h. MTT was added 2 h prior to end of 48 h incubation. Formazan particles were dissolved in DMSO and absorbance was measured at 540 nm. Raw absorbances are blank corrected, normalized to a no treatment or IL-22 only, and represented as a % reduction in viability compared to the no treatment or IL-22 only conditions. n=3 independent experiments with 3 experimental replicates, *p<0.05, ****p<0.0001, one-way ANOVA with Tukey's post test for multiple comparisons.
Colo205, T84, SW480, and DLD-1 cells were seeded at a density of 1×10^4 cells/well in 48 well plates. Cells were pre-treated for 48 h with 10 ng/mL IL-22, then subjected to 50 μM oxaliplatin (Sigma) or 5-fluorouracil (Sigma) or vehicle control (DMSO) for 48 h. 50 μg Methylthiazolyldiphenyl-tetrazolium bromide (MTT) (Sigma) was added to each well 2 h prior to the end of incubation. At the end of the 48 h incubation supernatants were aspirated and formazan particles were solubilized with DMSO and transferred to a fresh plate. Absorbance was measured at 540 nm on Spectrostar Nano plate reader (BMG Labtech).

[2] = system: T84 CRC cells (KRAS-mutant, IL22RA1 high); assay: Primary sphere forming assay, T84 cells; format: cell-based, human; conditions: 10 ng/mL IL-22 pre-treatment 48 h, spheres cultured 6 days
Protocol: (A) Schematic representation of primary sphere forming assay workflow. Cells were pre-treated with 10 ng/mL IL-22 for 48 hours, filtered to single cells and 1000 cells/well were seeded into 96 well low-binding plates in serum-free media containing 1% methylcellulose, 20 ng/mL EGF, 20 ng/mL bFGF with and without 10 ng/mL IL-22. Four experimental replicates were seeded for each condition. Cultured spheres from (B) Colo205, T84 and SW480 cell lines for 6 days. (C) Bright field microscopy images (4×) of single wells 6 days after seeding (1 experiment representative of 4). (D) MTT assay to assess viability of spheres 6 days after seeding (n=3). (E) Bright field microscopy of T84 spheres (20×) 6 days after seeding. (F) Quantification of spheres after 6 days of culture using ImageJ. Data represent mean+/−SD of 3 independent experiments, each with 3 technical replicates per condition. *p<0.05, one-way ANOVA with Dunnett's post test for multiple comparisons.
Colo205, T84, and SW480 cells were pretreated for 48 h in 48 well plates with 10 ng/mL IL-22 (R&D Systems). Cells were filtered to single cells using […] filter and 1000 cells/well were seeded into 96 well low binding plates (Corning) in 1% methylcellulose in IMDM (R&D Systems), 20 ng/mL recombinant EGF (Sigma), 20 ng/mL recombinant basic FGF (Peprotech), lx insulin-transferrin selenite (ITS) (Sigma) in serum-free DMEM. […]

[3] = system: DLD-1 KRAS MUT cells (heterozygous KRAS G13D); assay: Phosflow analysis of intracellular signaling, DLD-1 KRAS MUT; format: cell-based; conditions: 30 min 10 ng/mL recombinant human IL-22
Protocol: (§1) Therefore this isogenic pair differs only in KRAS mutation status and allows a clean system for comparison of KRAS-dependent IL-22 effects without inter-cell line mutational heterogeneity. (A) Representative FACS plots of IL-22RA1 expression and quantification of mean fluorescence intensity (WI) showing similar IL-22RA1 expression in the isogenic pair (4 experimental replicates). […] MTT was added 2 h prior to end of 48 h incubation. Formazan particles were dissolved in DMSO and absorbance was measured at 540 nm. Raw absorbances are blank corrected, normalized to a no treatment, and represented as a % viability compared to the no treatment condition. n=5 independent experiments with 3 experimental replicates. p values computed by non-parametric Mann-Whitney test comparing 5 FU alone to IL-22 pretreatment with 5 FU for each DLD-1 line.
Adherent Colo205, T84, SW480, and DLD-1 cells were dissociated using StemPro® Accutase® (Life Technologies), filtered through […] filters, and counted by Trypan Blue exclusion. 5×10^5 cells of each line were stained with 5 μL Human IL-22 R alpha 1 Phycoerythrin MAb (Clone 305405) (R&D Systems) or […] isotype rat anti-mouse IgG1 PE (BD Biosciences) and incubated for 30 minutes at room temperature. Cells were washed with PBS, 0.1% BSA, 2 mM EDTA and acquired on the BD LSRII. Analysis was performed using FlowJo (Tree Star) software. For analysis of intracellular signaling pathways by phosflow, DLD-1 isogenic cells were plated in 6 well plates (1.5 million cells/well) in serum free RPMI and allowed to adhere overnight. DLD-1 cells were then stimulated or not for 30 minutes with increasing doses of recombinant human IL-22 (0.001 ng/mL-100 ng/mL). Cells were dissociated with TrypLE, fixed for 10 min at 37° C. with BD Cytofix Fixation Buffer. Cells were then permeabilized in BD Phosflow Perm Buffer III for 30 min on ice. […]

[4] = system: DLD-1 KRAS WT cells (mutant KRAS allele knocked out); assay: Phosflow analysis of intracellular signaling, DLD-1 KRAS WT; format: cell-based; conditions: 30 min 10 ng/mL recombinant human IL-22
Protocol: as §1
Adherent Colo205, T84, SW480, and DLD-1 cells were dissociated using StemPro® Accutase® (Life Technologies), filtered through […] filters, and counted by Trypan Blue exclusion. 5×10^5 cells of each line were stained with 5 μL Human IL-22 R alpha 1 Phycoerythrin MAb (Clone 305405) (R&D Systems) or […] isotype rat anti-mouse IgG1 PE (BD Biosciences) and incubated for 30 minutes at room temperature. Cells were washed with PBS, 0.1% BSA, 2 mM EDTA and acquired on the BD LSRII. Analysis was performed using FlowJo (Tree Star) software. […]

DLD-1 KRAS MUT cells = assay: Chemotherapy killing assay (MTT), DLD-1 KRAS MUT; format: cell-based, human; conditions: 48 h pre-treatment with 10 ng/mL IL-22, then 50 μM 5-FU for 48 h
Protocol: as §1
Colo205, T84, SW480, and DLD-1 cells were seeded at a density of 1×10^4 cells/well in 48 well plates. Cells were pre-treated for 48 h with 10 ng/mL IL-22, then subjected to 50 μM oxaliplatin (Sigma) or 5-fluorouracil (Sigma) or vehicle control (DMSO) for 48 h. 50 μg Methylthiazolyldiphenyl-tetrazolium bromide (MTT) (Sigma) was added to each well 2 h prior to the end of incubation. […] Absorbance was measured at 540 nm on Spectrostar Nano plate reader (BMG Labtech).

B1: IL-22: recombinant human IL-22 (R&D Systems), IL-10 superfamily cytokine; human sequence SEQ ID NO: 5 (protein, listed as Homo sapiens)
chain: MAALQKSVSSFLMGTLATSCLLLLALLVQGGAAAPISSHCRLDKSNFQQPYITNRTFMLAKEASLADNNTDVRLIGEKLFHGVSMSERCYLMKQVLNFTLEEVLFPQSDRFQPYMQEVVPFLARLSNRLSTCHIEGDDLHIQRNVQKLKDTVKKLGESGEIKAIGELDLLFMSLRNACI
Protection against oxaliplatin and 5-fluorouracil mediated cell death [1]: protects against oxaliplatin and 5 fluorouracil mediated cell death
Clonogenic outgrowth (sphere formation) [2]: enhances clonogenic outgrowth
Phosphorylated ERK1/2 [3]: not IL-22 inducible
Phosphorylated S6 [3]: IL-22 inducible phosphorylated S6
Phosphorylated STAT3 [3]: identical extent of phosphorylated STAT3
Phosphorylated ERK1/2 [4]: not IL-22 inducible
Phosphorylated STAT3 [4]: identical extent of phosphorylated STAT3
Protection against 5-fluorouracil mediated cell death (DLD-1 KRAS MUT cells): protects against 5 fluorouracil mediated cell death
